Data on nine molecules can be found in paper PMC6769930, “Endoglin Protein Interactome Profiling Identifies TRIM21 and Galectin-3 as New Binding Partners” (Cells, 2019).

The target in the assay is T1, recombinant human soluble endoglin (sEng; Glu26-Gly586) (human, UniProt P17813 26-586).
T1 construct: human endoglin (CD105), extracellular domain, Glu26-Gly586; The same bought protein was the probe of the array and the analyte of the BLI; also called recombinant human endoglin/CD105 protein; source: bought: R&D Systems (1097-EN), purified recombinant
T1 sequence (looked up): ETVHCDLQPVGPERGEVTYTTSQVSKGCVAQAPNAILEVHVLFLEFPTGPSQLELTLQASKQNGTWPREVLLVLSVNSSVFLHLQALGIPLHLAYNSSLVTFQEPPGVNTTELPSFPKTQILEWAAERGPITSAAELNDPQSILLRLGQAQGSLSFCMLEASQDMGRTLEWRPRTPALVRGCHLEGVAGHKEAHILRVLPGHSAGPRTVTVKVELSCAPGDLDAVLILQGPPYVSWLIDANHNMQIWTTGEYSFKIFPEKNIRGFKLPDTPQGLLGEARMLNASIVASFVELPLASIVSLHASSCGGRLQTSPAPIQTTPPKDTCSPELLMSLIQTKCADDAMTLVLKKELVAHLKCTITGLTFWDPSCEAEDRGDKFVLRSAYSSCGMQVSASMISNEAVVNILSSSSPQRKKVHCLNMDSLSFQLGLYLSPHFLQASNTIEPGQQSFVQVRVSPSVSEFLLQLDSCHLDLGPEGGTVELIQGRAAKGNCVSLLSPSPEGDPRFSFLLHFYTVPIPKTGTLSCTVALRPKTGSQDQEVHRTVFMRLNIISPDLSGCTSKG
Nature of the assay: peptide or protein array; ProtoArray human protein Microarray v5.0 (over 9000 human proteins arrayed) probed with recombinant sEng in two replicates; detection with anti-endoglin mAb SN6h and HRP secondary antibody; hits with Z-score >=2.0 in both arrays. As to conditions: both partners purified.

B1: RAD51 associated protein 1 (RAD51AP1) (natural protein, human, UniProt Q96B01-2 1-335, looked up)
chain: MVRPVRHKKPVNYSQFDHSDSDDDFVSATVPLNKKSRTAPKELKQDKPKPNLNNLRKEEIPVQEKTPKKRMALDDKLYQRDLEVALALSVKELPTVTTNVQNSQDKSIEKHGSSKIETMNKSPHISNCSVASDYLDLDKITVEDDVGGVQGKRKAASKAAAQQRKILLEGSDGDSANDTEPDFAPGEDSEDDSDFCESEDNDEDFSMRKSKVKEIKKKEVKVKSPVEKKEKKSKSKCNALVTSVDSAPAAVKSESQSLPKKVSLSSDTTRKPLEIRSPSAESKKPKWVPPAASGGSRSSSSPLVVVSVKSPNQSLRLGLSRLARVKPLHPNATST
notes: human RAD51 associated protein 1; source: bought: ProtoArray human protein Microarray v5.0 (Life Technologies), individually purified and arrayed
As for B1, the binding result is recorded as “binds”.

B2: Cortactin (CTTN), transcript variant 2 (natural protein, human, UniProt Q14247-3 1-513, looked up)
chain: MWKASAGHAVSIAQDDAGADDWETDPDFVNDVSEKEQRWGAKTVQGSGHQEHINIHKLRENVFQEHQTLKEKELETGPKASHGYGGKFGVEQDRMDKSAVGHEYQSKLSKHCSQVDSVRGFGGKFGVQMDRVDQSAVGFEYQGKTEKHASQKDYSSGFGGKYGVQADRVDKSAVGFDYQGKTEKHESQRDYSKGFGGKYGIDKDKVDKSAVGFEYQGKTEKHESQKDYVKGFGGKFGVQTDRQDKCALGWDHQEKLQLHESQKDYSKGFGGKYGVQKDRMDKNASTFEDVTQVSSAYQKTVPVEAVTSKTSNIRANFENLAKEKEQEDRRKAEAERAQRMAKERQEQEEARRKLEEQARAKTQTPPVSPAPQPTEERLPSSPVYEDAASFKAELSYRGPVSGTEPEPVYSMEAADYREASSQQGLAYATEAVYESAEAPGHYPAEDSTYDEYENDLGITAVALYDYQAAGDDEISFDPDDIITNIEMIDDGWWRGVCKGRYGLFPANYVELRQ
notes: source: bought: ProtoArray human protein Microarray v5.0 (Life Technologies), individually purified and arrayed
As for B2, the binding result is listed as “binds”.

B3: Family with sequence similarity 39, member B (FAM39B) (natural protein, human, UniProt Q6VEQ5 1-465, looked up)
chain: MTPVRMQHSLAGQTYAVPLIQPDLRREEAVQQMADALQYLQKVSGDIFSRISQQVEQSRSQVQAIGEKVSLAQAKIEKIKGSKKAIKVFSSAKYPAPERLQEYGSIFTGAQDPGLQRRPRHRIQSKHRPLDERALQEKLKDFPVCVSTKPEPEDDAEEGLGGLPSNISSVSSLLLFNTTENLYKKYVFLDPLAGAVTKTHVMLGAETEEKLFDAPLSISKREQLEQQVPENYFYVPDLGQVPEIDVPSYLPDLPGIANDLMYIADLGPGIAPSAPGTIPELPTFHTEVAEPLKVDLQDGVLTPPPPPPPPPPAPEVLASAPPLPPSTAAPVGQGARQDDSSSSASPSVQGAPREVVDPSGGRATLLESIRQAGGIGKAKLRSMKERKLEKKKQKEQEQVRATSQGGHLMSDLFNKLVMRRKGISGKGPGAGEGPGGAFARVSDSIPPLPPPQQPQAEEDEDDWES
notes: human FAM39B; source: bought: ProtoArray human protein Microarray v5.0 (Life Technologies), individually purified and arrayed
As for B3, the binding result was “binds”.

B4: Spliceosome-associated protein CWC15 homolog (HSPC148) (natural protein, human, UniProt Q9P013 1-229, looked up)
chain: MTTAARPTFEPARGGRGKGEGDLSQLSKQYSSRDLPSHTKIKYRQTTQDAPEEVRNRDFRRELEERERAAAREKNRDRPTREHTTSSSVSKKPRLDQIPAANLDADDPLTDEEDEDFEEESDDDDTAALLAELEKIKKERAEEQARKEQEQKAEEERIRMENILSGNPLLNLTGPSQPQANFKVKRRWDDDVVFKNCAKGVDDQKKDKRFVNDTLRSEFHKKFMEKYIK
notes: human spliceosome-associated protein CWC15 homolog; source: bought: ProtoArray human protein Microarray v5.0 (Life Technologies), individually purified and arrayed
As to B4, the binding result is recorded as “binds”.

B5: Family with sequence similarity 126, member B (FAM126B) (natural protein, human, UniProt Q8IXS8 1-530, looked up)
chain: MLGTDRCVVEEWLSEFKALPDTQITSYAATLHRKKTLVPALYKVIQDSNNELLEPVCHQLFELYRSSEVRLKRFTLQFLPELMWVYLRLTVSRDRQSNGCIEALLLGIYNLEIADKDGNNKVLSFTIPSLSKPSIYHEPSTIGSMALTEGALCQHDLIRVVYSDLHPQRETFTAQNRFEVLSFLMLCYNSAIVYMPASSYQSLCRMGSRVCVSGFPRQHEKHWKELCGRIVLDPEFMVQLLTGVYYAMYNGQWDLGQEVLDDIIYRAQLELFSQPLLVANAMKNSLPFDAPDSTQEGQKVLKVEVTPTVPRISRTAITTASIRRHRWRREGAEGVNGGEESVNLNDADEGFSSGASLSSQPIGTKPSSSSQRGSLRKVATGRSAKDKETASAIKSSESPRDSVVRKQYVQQPTDLSVDSVELTPMKKHLSLPAGQVVPKINSLSLIRTASASSSKSFDYVNGSQASTSIGVGTEGGTNLAANNANRYSTVSLQEDRLGQAGEGKELLSPGAPLTKQSRSPSFNMQLISQV
notes: human FAM126B; source: bought: ProtoArray human protein Microarray v5.0 (Life Technologies), individually purified and arrayed
B5: the binding result is “binds”.

B6: HIRA interacting protein 3 (HIRIP3) (natural protein, human, UniProt Q9BW71-1 1-556, looked up)
chain: MAREKEMQEFTRSFFRGRPDLSTLTHSIVRRRYLAHSGRSHLEPEEKQALKRLVEEELLKMQVDEAASREDKLDLTKKGKRPPTPCSDPERKRFRFNSESESGSEASSPDYFGPPAKNGVAAEVSPAKEENPRRASKAVEESSDEERQRDLPAQRGEESSEEEEKGYKGKTRKKPVVKKQAPGKASVSRKQAREESEESEAEPVQRTAKKVEGNKGTKSLKESEQESEEEILAQKKEQREEEVEEEEKEEDEEKGDWKPRTRSNGRRKSAREERSCKQKSQAKRLLGDSDSEEEQKEAASSGDDSGRDREPPVQRKSEDRTQLKGGKRLSGSSEDEEDSGKGEPTAKGSRKMARLGSTSGEESDLEREVSDSEAGGGPQGERKNRSSKKSSRKGRTRSSSSSSDGSPEAKGGKAGSGRRGEDHPAVMRLKRYIRACGAHRNYKKLLGSCCSHKERLSILRAELEALGMKGTPSLGKCRALKEQREEAAEVASLDVANIISGSGRPRRRTAWNPLGEAAPPGELYRRTLDSDEERPRPAPPDWSHMRGIISSDGESN
notes: as for B2
In the case of B6, the binding result is recorded as “binds”.

B7: Origin recognition complex, subunit 6 like (yeast) (ORC6L) (natural protein, human, UniProt Q9Y5N6 1-252, looked up)
chain: MGSELIGRLAPRLGLAEPDMLRKAEEYLRLSRVKCVGLSARTTETSSAVMCLDLAASWMKCPLDRAYLIKLSGLNKETYQSCLKSFECLLGLNSNIGIRDLAVQFSCIEAVNMASKILKSYESSLPQTQQVDLDLSRPLFTSAALLSACKILKLKVDKNKMVATSGVKKAIFDRLCKQLEKIGQQVDREPGDVATPPRKRKKIVVEAPAKEMEKVEEMPHKPQKDEDLTQDYEEWKRKILENAASAQKATAE
notes: human origin recognition complex subunit 6; source: bought: ProtoArray human protein Microarray v5.0 (Life Technologies), individually purified and arrayed
Regarding B7, the binding result is recorded as “binds”.

B8: Potassium voltage-gated channel, shaker-related subfamily, beta member 1 (KCNAB1), transcript variant 1 (natural protein, human, UniProt Q14722-1 1-419, looked up)
chain: MLAARTGAAGSQISEENTKLRRQSGFSVAGKDKSPKKASENAKDSSLSPSGESQLRARQLALLREVEMNWYLKLCDLSSEHTTVCTTGMPHRNLGKSGLRVSCLGLGTWVTFGGQISDEVAERLMTIAYESGVNLFDTAEVYAAGKAEVILGSIIKKKGWRRSSLVITTKLYWGGKAETERGLSRKHIIEGLKGSLQRLQLEYVDVVFANRPDSNTPMEEIVRAMTHVINQGMAMYWGTSRWSAMEIMEAYSVARQFNMIPPVCEQAEYHLFQREKVEVQLPELYHKIGVGAMTWSPLACGIISGKYGNGVPESSRASLKCYQWLKERIVSEEGRKQQNKLKDLSPIAERLGCTLPQLAVAWCLRNEGVSSVLLGSSTPEQLIENLGAIQVLPKMTSHVVNEIDNILRNKPYSKKDYRS
notes: human KCNAB1, transcript variant 1; source: bought: ProtoArray human protein Microarray v5.0 (Life Technologies), individually purified and arrayed
In the case of B8, the binding result is “binds”.

B9: Coiled-coil domain containing 55 (CCDC55), transcript variant 1 (natural protein, human, UniProt Q9H0G5 1-558, looked up)
chain: MAIPGRQYGLILPKKTQQLHPVLQKPSVFGNDSDDDDETSVSESLQREAAKKQAMKQTKLEIQKALAEDATVYEYDSIYDEMQKKKEENNPKLLLGKDRKPKYIHNLLKAVEIRKKEQEKRMEKKIQREREMEKGEFDDKEAFVTSAYKKKLQERAEEEEREKRAAALEACLDVTKQKDLSGFYRHLLNQAVGEEEVPKCSFREARSGIKEEKSRGFSNEVSSKNRIPQEKCILQTDVKVEENPDADSDFDAKSSADDEIEETRVNCRREKVIETPENDFKHHRSQNHSRSPSEERGHSTRHHTKGSRTSRGHEKREDQHQQKQSRDQENHYTDRDYRKERDSHRHREASHRDSHWKRHEQEDKPRARDQRERSDRVWKREKDREKYSQREQERDRQQNDQNRPSEKGEKEEKSKAKEEHMKVRKERYENNDKYRDREKREVGVQSSERNQDRKESSPNSRAKDKFLDQERSNKMRNMAKDKERNQEKPSNSESSLGAKHRLTEEGQEKGKEQERPPEAVSKFAKRNNEETVMSARDRYLARQMARVNAKTYIEKEDD
notes: human CCDC55, transcript variant 1; source: bought: ProtoArray human protein Microarray v5.0 (Life Technologies), individually purified and arrayed
In the case of B9, the binding result is “binds”.
